Results on one substance are retold here after patent US9937129B2, “Materials and methods for delivering compositions to selected tissues” (The Regents of the University of California, priority 2007, dated 2018).

The conditions of series [1]: in vivo; cited from earlier work.
Series [2] can be described thus: Spontaneous adsorption and concentration of bevacizumab in porous SiO2. As to conditions: 0.125 mg/mL solution. In kind it is physicochemical. An excerpt:
The affinity of a porous Si particle for a particular molecule can be controlled with surface chemistry. The surface of oxidized porous Si has a point of zero charge at a pH of around 2, and so it presents a negatively charged surface to most aqueous solutions of interest. At the appropriate pH, porous SiO2 spontaneously adsorbs positively charged proteins such as serum albumin, fibrinogen, protein A, immunoglobulin G (IgG), or horseradish peroxidase, concentrating them in the process. For example, a 0.125 mg/mL solution of the monoclonal antibody bevacizumab (trade name Avastin, an anti-cancer drug) spontaneously concentrates in suitably prepared porous SiO2 by a factor of >100.

The conditions of series [3]: cited from earlier work.

Take bevacizumab [Avastin]: in series [1], the “Vitreous half-life of free drug” value is 120 h. Besides, the “Concentration factor in suitably prepared porous SiO2” value in series [2] is on record as over 100 factor. Moreover, in series [3], the IC50 is 0.022 µg/mL. The Therapeutically relevant dose in series [3] (intraocular) is over 22 ng/mL.
